# Data reported in article PMC10786891, “Massively parallel profiling of RNA-targeting CRISPR-Cas13d”.
# T1: EsCas13d, nuclease-dead (Eubacterium siraeum, UniProt B0MS50, R295A;H300A;R849A;H854A)
# T1 sequence: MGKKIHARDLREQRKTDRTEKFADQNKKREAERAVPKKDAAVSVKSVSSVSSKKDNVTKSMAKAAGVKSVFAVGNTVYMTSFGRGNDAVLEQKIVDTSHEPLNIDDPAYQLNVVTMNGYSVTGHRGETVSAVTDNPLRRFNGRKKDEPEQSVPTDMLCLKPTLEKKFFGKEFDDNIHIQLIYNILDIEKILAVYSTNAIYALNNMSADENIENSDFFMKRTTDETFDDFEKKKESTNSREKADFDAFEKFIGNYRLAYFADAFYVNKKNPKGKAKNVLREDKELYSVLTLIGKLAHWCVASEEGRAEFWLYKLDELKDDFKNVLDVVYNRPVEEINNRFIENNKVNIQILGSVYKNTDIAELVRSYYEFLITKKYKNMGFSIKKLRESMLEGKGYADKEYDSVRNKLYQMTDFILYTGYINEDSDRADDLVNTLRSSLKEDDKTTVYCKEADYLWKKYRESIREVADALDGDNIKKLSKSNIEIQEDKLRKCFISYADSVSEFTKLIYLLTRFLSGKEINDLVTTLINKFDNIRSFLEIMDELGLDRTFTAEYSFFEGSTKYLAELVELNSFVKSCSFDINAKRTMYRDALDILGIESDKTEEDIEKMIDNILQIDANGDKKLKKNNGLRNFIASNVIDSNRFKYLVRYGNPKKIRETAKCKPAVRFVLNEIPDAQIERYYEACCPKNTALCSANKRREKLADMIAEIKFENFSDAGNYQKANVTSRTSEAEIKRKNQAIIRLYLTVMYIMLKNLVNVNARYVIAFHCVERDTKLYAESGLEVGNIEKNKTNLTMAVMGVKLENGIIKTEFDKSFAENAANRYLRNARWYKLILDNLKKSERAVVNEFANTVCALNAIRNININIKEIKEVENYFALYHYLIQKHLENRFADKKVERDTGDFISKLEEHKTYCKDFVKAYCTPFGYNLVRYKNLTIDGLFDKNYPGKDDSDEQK
# B1: target 2 MT 5'PFS ACG 3'PFS ACA (mixed)
# RNA 1: CACCCGUGCAAAAUUGCAGGGGUCUAAAACCUUCUCCAAAUUGUUUCAUCCU
# RNA 2: GGGAAUGGAUCCACAUCUACGAAUUCACGAGGAUGAAACAAUUUGGAGAAGACAAGAUCGGAAGAGCACACGU
# B2: target 2 MT 5'PFS CAU 3'PFS CAA (mixed)
# RNA 1: CACCCGUGCAAAAUUGCAGGGGUCUAAAACCUUCUCCAAAUUGUUUCAUCCU
# RNA 2: GGGAAUGGAUCCACAUCUACGAAUUCCAUAGGAUGAAACAAUUUGGAGAAGCAAAGAUCGGAAGAGCACACGU
# B3: target 2 MT 5'PFS UUU 3'PFS ACG (mixed)
# RNA 1: CACCCGUGCAAAAUUGCAGGGGUCUAAAACCUUCUCCAAAUUGUUUCAUCCU
# RNA 2: GGGAAUGGAUCCACAUCUACGAAUUCUUUAGGAUGAAACAAUUUGGAGAAGACGAGAUCGGAAGAGCACACGU
# B4: target 2 MT 5'PFS UCU 3'PFS UUU (mixed)
# RNA 1: CACCCGUGCAAAAUUGCAGGGGUCUAAAACCUUCUCCAAAUUGUUUCAUCCU
# RNA 2: GGGAAUGGAUCCACAUCUACGAAUUCUCUAGGAUGAAACAAUUUGGAGAAGUUUAGAUCGGAAGAGCACACGU
# B5: target 2 MT 5'PFS CAU 3'PFS CAC (mixed)
# RNA 1: CACCCGUGCAAAAUUGCAGGGGUCUAAAACCUUCUCCAAAUUGUUUCAUCCU
# RNA 2: GGGAAUGGAUCCACAUCUACGAAUUCCAUAGGAUGAAACAAUUUGGAGAAGCACAGAUCGGAAGAGCACACGU
# B6: target 2 MT 5'PFS UUU 3'PFS ACU (mixed)
# RNA 1: CACCCGUGCAAAAUUGCAGGGGUCUAAAACCUUCUCCAAAUUGUUUCAUCCU
# RNA 2: GGGAAUGGAUCCACAUCUACGAAUUCUUUAGGAUGAAACAAUUUGGAGAAGACUAGAUCGGAAGAGCACACGU
# B7: target 2 MT 5'PFS UCU 3'PFS UUC (mixed)
# RNA 1: CACCCGUGCAAAAUUGCAGGGGUCUAAAACCUUCUCCAAAUUGUUUCAUCCU
# RNA 2: GGGAAUGGAUCCACAUCUACGAAUUCUCUAGGAUGAAACAAUUUGGAGAAGUUCAGAUCGGAAGAGCACACGU
# B8: target 2 MT 5'PFS GGC 3'PFS CGG (mixed)
# RNA 1: CACCCGUGCAAAAUUGCAGGGGUCUAAAACCUUCUCCAAAUUGUUUCAUCCU
# RNA 2: GGGAAUGGAUCCACAUCUACGAAUUCGGCAGGAUGAAACAAUUUGGAGAAGCGGAGAUCGGAAGAGCACACGU
# B9: target 2 MT 5'PFS GGC 3'PFS CGA (mixed)
# RNA 1: CACCCGUGCAAAAUUGCAGGGGUCUAAAACCUUCUCCAAAUUGUUUCAUCCU
# RNA 2: GGGAAUGGAUCCACAUCUACGAAUUCGGCAGGAUGAAACAAUUUGGAGAAGCGAAGAUCGGAAGAGCACACGU
# B10: target 2 MT 5'PFS AAU 3'PFS ACG (mixed)
# RNA 1: CACCCGUGCAAAAUUGCAGGGGUCUAAAACCUUCUCCAAAUUGUUUCAUCCU
# RNA 2: GGGAAUGGAUCCACAUCUACGAAUUCAAUAGGAUGAAACAAUUUGGAGAAGACGAGAUCGGAAGAGCACACGU
# B11: target 2 MT 5'PFS AAU 3'PFS ACC (mixed)
# RNA 1: CACCCGUGCAAAAUUGCAGGGGUCUAAAACCUUCUCCAAAUUGUUUCAUCCU
# RNA 2: GGGAAUGGAUCCACAUCUACGAAUUCAAUAGGAUGAAACAAUUUGGAGAAGACCAGAUCGGAAGAGCACACGU
# B12: target 2 MT 5'PFS AUU 3'PFS UGC (mixed)
# RNA 1: CACCCGUGCAAAAUUGCAGGGGUCUAAAACCUUCUCCAAAUUGUUUCAUCCU
# RNA 2: GGGAAUGGAUCCACAUCUACGAAUUCAUUAGGAUGAAACAAUUUGGAGAAGUGCAGAUCGGAAGAGCACACGU
# B13: target 2 MT 5'PFS UCG 3'PFS CUG (mixed)
# RNA 1: CACCCGUGCAAAAUUGCAGGGGUCUAAAACCUUCUCCAAAUUGUUUCAUCCU
# RNA 2: GGGAAUGGAUCCACAUCUACGAAUUCUCGAGGAUGAAACAAUUUGGAGAAGCUGAGAUCGGAAGAGCACACGU
# B14: target 2 MT 5'PFS UUU 3'PFS ACC (mixed)
# RNA 1: CACCCGUGCAAAAUUGCAGGGGUCUAAAACCUUCUCCAAAUUGUUUCAUCCU
# RNA 2: GGGAAUGGAUCCACAUCUACGAAUUCUUUAGGAUGAAACAAUUUGGAGAAGACCAGAUCGGAAGAGCACACGU
# B15: target 2 MT 5'PFS ACG 3'PFS ACU (mixed)
# RNA 1: CACCCGUGCAAAAUUGCAGGGGUCUAAAACCUUCUCCAAAUUGUUUCAUCCU
# RNA 2: GGGAAUGGAUCCACAUCUACGAAUUCACGAGGAUGAAACAAUUUGGAGAAGACUAGAUCGGAAGAGCACACGU
# B16: target 2 MT 5'PFS UCG 3'PFS CUC (mixed)
# RNA 1: CACCCGUGCAAAAUUGCAGGGGUCUAAAACCUUCUCCAAAUUGUUUCAUCCU
# RNA 2: GGGAAUGGAUCCACAUCUACGAAUUCUCGAGGAUGAAACAAUUUGGAGAAGCUCAGAUCGGAAGAGCACACGU
# B17: target 2 MT 5'PFS ACG 3'PFS ACC (mixed)
# RNA 1: CACCCGUGCAAAAUUGCAGGGGUCUAAAACCUUCUCCAAAUUGUUUCAUCCU
# RNA 2: GGGAAUGGAUCCACAUCUACGAAUUCACGAGGAUGAAACAAUUUGGAGAAGACCAGAUCGGAAGAGCACACGU
# B18: target 2 MT 5'PFS CUU 3'PFS AUG (mixed)
# RNA 1: CACCCGUGCAAAAUUGCAGGGGUCUAAAACCUUCUCCAAAUUGUUUCAUCCU
# RNA 2: GGGAAUGGAUCCACAUCUACGAAUUCCUUAGGAUGAAACAAUUUGGAGAAGAUGAGAUCGGAAGAGCACACGU
# B19: target 2 MT 5'PFS ACG 3'PFS ACG (mixed)
# RNA 1: CACCCGUGCAAAAUUGCAGGGGUCUAAAACCUUCUCCAAAUUGUUUCAUCCU
# RNA 2: GGGAAUGGAUCCACAUCUACGAAUUCACGAGGAUGAAACAAUUUGGAGAAGACGAGAUCGGAAGAGCACACGU
# B20: target 2 MT 5'PFS AGG 3'PFS AGC (mixed)
# RNA 1: CACCCGUGCAAAAUUGCAGGGGUCUAAAACCUUCUCCAAAUUGUUUCAUCCU
# RNA 2: GGGAAUGGAUCCACAUCUACGAAUUCAGGAGGAUGAAACAAUUUGGAGAAGAGCAGAUCGGAAGAGCACACGU
# B21: target 2 MT 5'PFS GGC 3'PFS CGC (mixed)
# RNA 1: CACCCGUGCAAAAUUGCAGGGGUCUAAAACCUUCUCCAAAUUGUUUCAUCCU
# RNA 2: GGGAAUGGAUCCACAUCUACGAAUUCGGCAGGAUGAAACAAUUUGGAGAAGCGCAGAUCGGAAGAGCACACGU
# B22: target 2 MT 5'PFS AGG 3'PFS AGA (mixed)
# RNA 1: CACCCGUGCAAAAUUGCAGGGGUCUAAAACCUUCUCCAAAUUGUUUCAUCCU
# RNA 2: GGGAAUGGAUCCACAUCUACGAAUUCAGGAGGAUGAAACAAUUUGGAGAAGAGAAGAUCGGAAGAGCACACGU
# B23: target 2 MT 5'PFS UUU 3'PFS ACA (mixed)
# RNA 1: CACCCGUGCAAAAUUGCAGGGGUCUAAAACCUUCUCCAAAUUGUUUCAUCCU
# RNA 2: GGGAAUGGAUCCACAUCUACGAAUUCUUUAGGAUGAAACAAUUUGGAGAAGACAAGAUCGGAAGAGCACACGU
# B24: target 2 MT 5'PFS UCU 3'PFS UUA (mixed)
# RNA 1: CACCCGUGCAAAAUUGCAGGGGUCUAAAACCUUCUCCAAAUUGUUUCAUCCU
# RNA 2: GGGAAUGGAUCCACAUCUACGAAUUCUCUAGGAUGAAACAAUUUGGAGAAGUUAAGAUCGGAAGAGCACACGU
# B25: target 1 A16U,G17U (mixed)
# RNA 1: CACCCGUGCAAAAAUGCAGGGGUCUAAAACUGAGCGGAUAACCUCUCUAUGG
# RNA 2: GGGAAUGGAUCCACAUCUACGAAUUCGUACCAUAUUGAGGUUAUCCGCUCACCGAGAUCGGAAGAGCACACGU
# B26: target 1 insG 3' of 20,insU 3' of 12 (mixed)
# RNA 1: CACCCGUGCAAAAAUGCAGGGGUCUAAAACUGAGCGGAUAACCUCUCUAUGG
# RNA 2: GGGAAUGGAUCCACAUCUACGAAUUCGUACCAGUAGAGAGGUUUAUCCGCUCACCGAGAUCGGAAGAGCACACGU
# B27: target 1 insG 3' of 7,insA 3' of 3 (mixed)
# RNA 1: CACCCGUGCAAAAAUGCAGGGGUCUAAAACUGAGCGGAUAACCUCUCUAUGG
# RNA 2: GGGAAUGGAUCCACAUCUACGAAUUCGUACCAUAGAGAGGUUAUCGCGCUACACCGAGAUCGGAAGAGCACACGU
# B28: target 1 insC 3' of 15,insA 3' of 15 (mixed)
# RNA 1: CACCCGUGCAAAAAUGCAGGGGUCUAAAACUGAGCGGAUAACCUCUCUAUGG
# RNA 2: GGGAAUGGAUCCACAUCUACGAAUUCGUACCAUAGAGCAAGGUUAUCCGCUCACCGAGAUCGGAAGAGCACACGU
# Target: T1, EsCas13d, nuclease-dead
# Experiment: crRNA (strand 1, pre-loaded); Mg2+; 40 mM Tris-HCl pH 7.5, 150 mM NaCl, 6 mM MgCl2, 1 mM DTT, 0.1% Tween-20, 0.2 mg/ml BSA; 25 C; 10 min per concentration, then washed
# Settings: tags: His6-TwinStrep-SUMO cleaved; N-terminal SNAP kept (SNAP-Surface 488); label: 3' end held by stalled T7 RNA polymerase
row,Binder,Kd
1,B1,9.7 ± 2.4 nM
2,B2,5.2 ± 0.9 nM
3,B3,10.6 ± 2 nM
4,B4,10.3 ± 1 nM
5,B5,4.6 ± 0.8 nM
6,B6,9.1 ± 0.8 nM
7,B7,18 ± 4 nM
8,B8,14.1 ± 1.7 nM
9,B9,11.4 ± 1.2 nM
10,B10,5.5 ± 0.6 nM
11,B11,10.5 ± 1.6 nM
12,B12,9.7 ± 1.4 nM
13,B13,40 ± 9 nM
14,B14,14.1 ± 3.4 nM
15,B15,17 ± 5 nM
16,B16,23 ± 6 nM
17,B17,~20 nM
18,B18,4.1 ± 0.4 nM
19,B19,15 ± 4 nM
20,B20,4.8 ± 0.5 nM
21,B21,12.5 ± 1.1 nM
22,B22,3.4 ± 0.4 nM
23,B23,6.1 ± 0.7 nM
24,B24,15.6 ± 3 nM
25,B25,22 ± 2.1 nM
26,B26,25 ± 4 nM
27,B27,5.85 ± 0.29 nM
28,B28,8.8 ± 0.6 nM
